Experimental data reported in the DeepSol protein solubility set.

Assay: soluble on expression in E. coli; label from the status in PepcDB or PDB records

Q: With “GSCSSKPANTAKGEKGSDKTGKDLELKLSFQEGIAPGESLNEKLDFMEKLGVVGFEPGGGGLAGRVNEIKQALNGRNIKVSAICAGFKGFILSTDPAIRKECMDTMKEIIAAAGELGSTGVIIVPAFNGQVPALPHTMETRDFLCEQFNEMGTFAAQHGTSVIFEPLNRKECFYLRQVADAASLCRDINNPGVRCMGDFWHMTWEETSDMGAFISGGEYLQHVHVASRKRRSMPGEDGDADNYINGFKGLKMIGYNNYVSFECGCQGDRNVVVPAAVKLLREQWEQA” as the sequence, how does the “soluble on expression in E. coli” value read?
A: Its value is “soluble”.

Q: With “GSEDTMDRINKDHDHTTSVASRFILADVITSTAFSNASGDINTYASSYIEYEVGVDNQLYYAEVRENEPSSSSTFNNSWNGIYSSLKNARIIIDQCGEGGRDHGNDVTRGMAEVMAAYNCALIADFFGDAPCSQAALVDEKGSPVYMTPKMDTQQEIYTQIISYLDDAIANLQKEDLADVTEQDFLYAGDADKWLKFAYGLKARYTMRLINRSSNKSADYEKVLDYVSKSFTSADDQAAFDIYDSNNINPFYGFYNSRAGFGASTSLGTKLLAYNDPRANRAFFTPIVDKKRSQVAANDPSLVPAPNGSPDQSTSKYGISAFVYAKTAPTLLMSYHELMFLKAEALCRLNRDAEDALKEAVVAGLLNAENSISIAIKELGSGLNTNSSEVITETSAGKYFDDVVKAKYAANPLQETMIQKYLAMWGASGEATETYNDFRRMKGLNENFITLTNPNNSSKFPLRYPYGNSDTAANPEVKAAYGNGDYVYSEPVWWAGGSR” as the sequence, how does the “soluble on expression in E. coli” value read?
A: The value was “soluble”.

Q: Which “soluble on expression in E. coli” value does the source give for “GSENIYTTLKFESMMQQRVIQIRSIPEEEYHELVSVQFKTDGGKYEKGEKQDLELSEKKTENGKDTESWGWNENQDSDEHDGWDEELDIDVDNVPIQVSVFVQSAAKVFTEFEQGCDTIGRSKVESIYLYKFNLLQTAFFAMVSEKVNDWTQLYKDVRYLYTENPKLLQLMELNSRRLDLNLNLIKKTIYKLVNDQLQELKDNERTPDWDITISSLLPYLKKTALPTLYKLEDNTILVALIRYIVHDLVIDNILHWRVISEKSSENLSEFIMLLLSGLEIPRLNLIETYRHSREKLGILSKILTAHLKDILEMFYEGEFFLFETDEIVQWIILLFADTPTRRDCIDEIRRVREEATD” here?
A: The value was “soluble”.

Q: Which “soluble on expression in E. coli” value does the source give for “GSFEEDLSQKNTWWSRGIYELLGYTPFEVEPRAELFFQHIKEPHRTLIKEHYLHLNQSQETQYISEDYEILTKKGEGRWLNSSVKLIRDEKGTLLKAQGAILDVT” here?
A: The value was “not soluble”.

Q: With “GSFLPNSEQQKSVDIVFSSPQDLTVSLIPVSGLKAGKNAPSAKIAKLVVNSTTLKEFGVRGISNNVVDSTGTAWRVAGKNTGKEIGVGLSSDSLRRSDSTEKWNGVNWMTFNSNDTLDIVLTGPAQNVTADTYPITLDVVGYQP” as the sequence, how does the “soluble on expression in E. coli” value read?
A: Its value is “soluble”.

Q: Which “soluble on expression in E. coli” value does the source give for “GSGMEQFPKETVVESSGPKVLETAEEIQERRQEVLTRYQSFKERVAERGQKLEDSYHLQVFKRDADDLGKWIMEKVNILTDKSYEDPTNIQGKYQKHQSLEAEVQTKSRLMSELEKTREERFTMGHSAHEETKAHIEELRHLWDLLLELTLEKGDQLLRAL” here?
A: Its value is “soluble”.

Q: With “GSGSRMKTVDKSKTLTKFEEFFSLQDYKDRVFEAIEKYPNVRSIEVDYLDLEMFDPDLADLLIEKPDDVIRAAQQAIRNIDRLRKNVDLNIRFSGISNVIPLRELRSKFIGKFVAVDGIVRKTDEIRPRIVKAVFECRGCMRHHAVTQSTNMITEPSLCSECGGRSFRLLQDESEFLDTQTLKLQEPLENLSGGEQPRQITVVLEDDLVDTLTPGDIVRVTGTLRTVRDERTKRFKNFIYGNYTEFLEQEFEELQISEEDEEKIKELAGDPNIYEKIIR” as the sequence, how does the “soluble on expression in E. coli” value read?
A: The value was “soluble”.

Q: For “GSGTMEKGTFTLKDIYKQIEAMNKMGPVRKIFEMLPFGLGLKVDNDVMEMTQEKMKKFRVIMDSMTEEELLNPKIIDSSRIRRIAIGSGTSPQEVKELLNYYKTMKNLMKKMKKNKLPI”, which “soluble on expression in E. coli” value is on record?
A: The value was “soluble”.

Q: With “GSHGGIEGVKGAASGVVGELARARLALDERGQKLSDLEERTAAMMSSADSFSKHAHEMMLKYK” as the sequence, how does the “soluble on expression in E. coli” value read?
A: Its value is “soluble”.

Q: Which “soluble on expression in E. coli” value does the source give for “GSHMAMAYVIRDEWGNQIWICPGCNKPDDGSPMIGCDDCDDWYHWPCVGIMAAPPEEMQWFCPKCANKIKKDKKH” here?
A: Its value is “soluble”.

Q: For “GSHMASGDATDITIYYKTGWTHPHIHYSLNQGAWTTLPGVPLTKSEYEGYVKVTIEAEEGSQLRAAFNNGSGQWDNNQGRDYDFSSGVHTLADGRILSGTPK”, which “soluble on expression in E. coli” value is on record?
A: Its value is “soluble”.

Q: For “GSHMENYHAGPGISKSQLDDIADTPALYLWRKNAPVDTTKTKTLDLGTAFHCRVLELEEFSNRFIVAPEFNRRTNAGKEEEKAFLMECASTGKTVITAEEGRKIELMYQSVMALPLGQWLVESAGHAESSIYWEDPETGILCRCRPDKIIPEFHWIMDVKTTADIQRFKTAYYDYRYHVQDAFYSDGYEAQFGVQPTFVFLVASTTIECGRYPVEIFMMGEEAKLAGQQEYHRNLRTLSDCLNTDEWPAIKTLSLPRWAKEYAND”, which “soluble on expression in E. coli” value is on record?
A: Its value is “soluble”.

Q: Which “soluble on expression in E. coli” value does the source give for “GSHMEQDLKTLPTTKITCPKCGNDTAYWWEMQTRAGDEPSTIFYKCTKCGHTWRSYE” here?
A: Its value is “soluble”.

Q: With “GSHMGHIIDISKWNGDINWSIAKQHIDFIIARVQDGSNYVDPLYKGYVQAMKQHGIPFGNYAFCRFVSIADAKKEAQDFWNRGDKSATVWVADVEVKTMNDMRAGTQAFIDELYRLGAKKVGLYVGHHMYTPFGMANVKSDFVWIPRYGGNKPAYPCDIWQYTETGNVPGIGKCDLNSLIGNKSLSWFTESA” as the sequence, how does the “soluble on expression in E. coli” value read?
A: The value was “soluble”.

Q: For “GSHMMKVEKEIKTNQDIDVVMTIFSDPAFTIPQIFPGIASIKCIEPEIFEAEGKFLAFSYKVKGRVYKGVDEVRIIYDSDRGNGILYIRKKDNNTLQIILEHDNKLTAFLGKPYVSSNLDRLAENIDEIIRLERIKRKI”, which “soluble on expression in E. coli” value is on record?
A: Its value is “soluble”.

Q: With “GSHMNNEDFSQWSVDDVITWCISTLEVEETDPLCQRLRENDIVGDLLPELCLQDCQDLCDGDLNKAIKFKILINKMRDSKLEWKD” as the sequence, how does the “soluble on expression in E. coli” value read?
A: Its value is “soluble”.

Q: With “GSHMSKSDVFHLGLTKNDLQGATLAIVPGDPDRVEKIAALMDKPVKLASHREFTTWRAELDGKPVIVCSTGIGGPSTSIAVEELAQLGIRTFLRIGTTGAIQPHINVGDVLVTTASVRLDGASLHFAPLEFPAVADFECTTALVEAAKSIGATTHVGVTASSDTFYPGQERYDTYSGRVVRHFKGSMEEWQAMGVMNYEMESATLLTMCASQGLRAGMVAGVIVNRTQQEIPNAETMKQTESHAVKIVVEAARRLL” as the sequence, how does the “soluble on expression in E. coli” value read?
A: The value was “soluble”.

Q: For “GSHMSQPRPLLSPPETEEQLLAQAQQLSGYTLGELAALVGLVTPENLKRDKGWIGVLLEIWLGASAGSKPEQDFAALGVELKTIPVDSLGRPLETTFVCVAPLTGNSGVTWETSHVRHKLKRVLWIPVEGERSIPLAQRRVGSPLLWSPNEEEDRQLREDWEELMDMIVLGQVERITARHGEYLQIRPKAANAKALTEAIGARGERILTLPRGFYLKKNFTSALLARHFLIQ”, which “soluble on expression in E. coli” value is on record?
A: Its value is “soluble”.

Q: With “GSHMVPEPDLPHDLRHLNTEPMEIFRNSVKIEEIMPNGDPLLAGQNTVDEVYVSRPS” as the sequence, how does the “soluble on expression in E. coli” value read?
A: The value was “soluble”.

Q: With “GSITQPTAINVIFPDPALANAIKIAAGKSNVTDTVTQADLDGITTLSAFGTGVTTIEGVQYLNNLIGLELKDNQITDLAPLKNLTKITELELSGNPLKNVSAIAGLQSIKTLDLTSTQITDVTPLAGLSNLQVLYLDLNQITNISPLAGLTNLQYLSIGNAQVSDLTPLANLSKLTTLKADDNKISDISPLASLPNLIEVHLKNNQISDVSPLANTSNLFIVTLTNQTITNQPVFYNNNLVVPNVVKGPSGAPIAPATISDNGTYASPNLTWNLTSFINNVSYTFNQSVTFKNTTVPFSGTVTQPLTE” as the sequence, how does the “soluble on expression in E. coli” value read?
A: The value was “soluble”.

Q: Which “soluble on expression in E. coli” value does the source give for “GSKGNIRVIARVRPVTKEDGEGPEATNAVTFDADDDSIIHLLHKGKPVSFELDKVFSPQASQQDVFQEVQALVTSCIDGFNVCIFAYGQTGAGKTYTMEGTAENPGINQRALQLLFSEVQEKASDWEYTITVSAAEIYNEVLRDLLGKEPQEKLEIRLCPDGSGQLYVPGLTEFQVQSVDDINKVFEFGHTNRTTEFTNLNEHSSRSHALLIVTVRGVDCSTGLRTTGKLNLVDLAGSERVGKSGAEGSRLREAQHINKSLSALGDVIAALRSRQGHVPFRNSKLTYLLQDSLSGDSKTLMVVQVSPVEKNTSETLYSLKFAERVRSVEL” here?
A: Its value is “soluble”.

Q: Which “soluble on expression in E. coli” value does the source give for “GSLILDGDLLKDKLKLPVIDNLFGKELLDKFQDDIKDKYGVDTKDLKILKTSEDKRFYYVSVDAGDGEKCKFKIRKDVDVPKMVGRKCRKDDDDDDGY” here?
A: Its value is “soluble”.

Q: Which “soluble on expression in E. coli” value does the source give for “GSLRVKFSRSADAPAYQQGQNQLYNELNLGRREEYDVLDKRRGRD” here?
A: Its value is “soluble”.
